Reference: PMC5809688 (Molecular and Cellular Biology, 2017)

Key:
[1] = target: T1, wild-type p38α mitogen-activated protein kinase (UniProt P47811 1-360); assay: ITC; ITC200 microcalorimeter (Microcal); T = 298 K; heats corrected for dilution; which partner was titrated is not stated; conditions: both partners purified
T1 construct: His6 tag followed by a TEV cleavage site at the N-terminal end; also called wtp38α

[2] = target: T2, p38α(T185G) (UniProt P47811 1-360, T185G); assay: as above; conditions: both partners purified
T2 construct: PCR product described as a full-length p38α harboring the desired mutation; His6 tag followed by a TEV cleavage site at the N-terminal end; also called T185G mutant; p38α(T185G) mutant kinase
T2 sequence (P47811 whole entry T185G): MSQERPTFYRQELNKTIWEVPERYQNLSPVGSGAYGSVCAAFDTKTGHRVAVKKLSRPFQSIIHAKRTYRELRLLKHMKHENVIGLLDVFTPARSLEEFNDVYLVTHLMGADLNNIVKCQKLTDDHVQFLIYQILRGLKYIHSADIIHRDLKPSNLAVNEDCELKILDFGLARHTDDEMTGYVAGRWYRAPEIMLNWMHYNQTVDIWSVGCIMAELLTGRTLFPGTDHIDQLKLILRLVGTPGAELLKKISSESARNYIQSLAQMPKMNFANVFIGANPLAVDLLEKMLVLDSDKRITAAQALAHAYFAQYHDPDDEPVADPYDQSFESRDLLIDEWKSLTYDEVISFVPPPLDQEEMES

T1 sequence (P47811 whole entry): as the sequence (P47811 whole entry T185G) above, with G185T counted along it

What does the source list for GGRVYPVSVPYSSAQSTSKTSVTLSLVMP (peptide, UniProt Q15750 384-412, looked up)?
Kd [1]: 2.9 µM; dH [1]: -13.6 kcal/mol; stoichiometry N [1]: 0.8; Kd [2]: 1.1 µM; dH [2]: -9.6 kcal/mol; stoichiometry N [2]: 0.7
